Article PMC6468313, “Role of Cdc23/Mcm10 in generating the ribonucleotide imprint at the mat1 locus in fission yeast” (Nucleic Acids Research, 2019)

Biological target: T1, GST-Cdc23 (S. pombe, UniProt O42709 1-593)
T1 construct: Cdc23/Mcm10 of S. pombe; also called GST-tagged Cdc23; source: E. coli Codon Plus, from pGEX2T, induced with 1 mM IPTG for 16 h at 18°C; ultrafilter-concentrated extract (pull-down); partially purified (far-western)
T1 sequence (looked up): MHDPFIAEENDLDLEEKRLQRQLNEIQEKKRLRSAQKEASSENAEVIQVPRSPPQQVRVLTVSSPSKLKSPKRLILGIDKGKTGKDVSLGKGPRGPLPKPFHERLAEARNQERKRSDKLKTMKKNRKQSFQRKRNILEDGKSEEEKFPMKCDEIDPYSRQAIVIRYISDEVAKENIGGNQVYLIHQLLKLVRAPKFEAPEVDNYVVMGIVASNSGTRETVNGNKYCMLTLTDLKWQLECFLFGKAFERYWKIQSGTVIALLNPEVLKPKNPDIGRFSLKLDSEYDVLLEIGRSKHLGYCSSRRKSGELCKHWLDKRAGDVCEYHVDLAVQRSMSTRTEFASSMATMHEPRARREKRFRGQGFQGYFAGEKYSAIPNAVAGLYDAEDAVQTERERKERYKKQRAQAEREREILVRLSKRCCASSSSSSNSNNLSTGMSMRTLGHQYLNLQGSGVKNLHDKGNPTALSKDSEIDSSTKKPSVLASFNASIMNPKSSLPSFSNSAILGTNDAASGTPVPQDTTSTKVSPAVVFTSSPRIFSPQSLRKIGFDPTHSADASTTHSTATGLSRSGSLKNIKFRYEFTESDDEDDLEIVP
Test: far-Western, overlay or dot blot; partially purified GST and GST-Cdc23 resolved by SDS-PAGE, blotted and progressively renatured; incubated with purified extracts from E. coli expressing MBP, MBP-Polα^+ or MBP-Polα^Swi7-1; probed with anti-Polα
Conditions: both partners purified

fold weaker interaction than with Polα^+: ~3 fold
B1: MBP-Polα^Swi7-1 (natural protein, S. pombe, UniProt P28040 1-1405, looked up)
chain: MRKRNAGIKPSQRFAELRALRQAGKTRASTYESKENEELYDNVSEEEYRKIVRQRLDEDDFVVDDNGAGYVDNGYDEWDQSHYSDEDDENEKGSSGRKRKKSKNVLAEPNQQIGAFFKANAIQPASRIANRKNNEKEDEFMAEILGSIDQDIPERLSTKKGNRSHTTSNAKRRSQKAASSISTTNVVSSDPKKYIPETVPSTPQPASSLPIPSSPPAALETEENVDSQPMELDEPELPVGSDAPIIDVEESIAMKPLMSHDQVDDTASLSKATISQQPLSPMTPLSSELDVSAFSEINSKIKNVDVPASSYSSPISKVSPSDVTEEDGSLFFFWMDYTEMYGSLCLFGKVYDKATKQYVSCFLKVDGIMRSLYFLPRPSSSSVSEDSIAAQTKDVYDEVANLLSKRGVKEWKSRVSKYKYAFELEDVPRTADYLEVIYSYSYPALPTDLTGSSFSHVFGTNTALFEQFVLSRRVMGPCWLKIQQPNFDAVKNASWCRVEIGCSSPQNISVSFEKNEITSKTPPMTVMSLAFRTLINKEQNKQEVVMISARIFENVDIEKGLPANDMPSYSFSLIRPLKQIFPNGFEKLARQHKSSIFCERSEVSLLNNFLNKVRTYDPDVYFGHDFEMCYSVLLSRLKERKIHNWSSIGRLRRSEWPRSFNRSSQQFVEKQIIAGRLMCDLSNDFGRSMIKAQSWSLSEIVLKELDIKRQDINQEKALQSWTDTAHGLLDYLVHCEIDTFFIAAVAFKIQMLQLSKNLTNIAGNSWARTLTGTRAERNEYILLHEFKKNGYIVPDKQQSIRRHAEAFGAEDGLQEESLGKKKDKYKGGLVFEPQKGLYETCILVMDFNSLYPSIIQEYNICFTTVDRSPSNSDSDDQIPDTPSASANQGIFPRLIANLVERRRQIKGLLKDNSATPTQRLQWDIQQQALKLTANSMYGCLGYTKSRFYARPLAVLITYKGREALMNTKELADQMGLQVIYGDTDSVMLNTNVTDKNHALRIGNEFKEKVNERYSKLEIDIDNVYQRMLLHAKKKYAALQLDSQGKPNLDVKGLDMKRREFCTLAKEASKFCLDQILSGELTETVIENIHSYLMDFSEKMRNGKFPANKFIIFNRLEKNPEDYPNGKTMPFVQVALKKKARGENVRVGDVIPFIIAGSDADGHPADRAYSPQEIMNTNSTLVIDYNYYLSHQILPPIERVIAPIEGTNRARLAECLGLDARKYYSHETSESSAFQRYESTLTDDQCFINVSPLLLKCPSCNATSFSLRSVKSLKETLYANTVECDCGYEYSDFTIILQFSSQLRDFINLYYEGILVCDDSSCGNRTRQMSVYGKRCCNKSCRGSVHFEYNDEQLYNQIKFLLKAVQTTTGATRNGIIRCNAINKNISRIMNKNAREFVDMGLIFSS
notes: catalytic subunit of DNA polymerase α (Swi7) of S. pombe with the swi7-1 mutation G1116E; also called MBP-tagged swi7-1/polα; Polα^7-1; source: E. coli, from pMALp2, induced with 1 mM IPTG for 8 h at 25°C; purified on amylose resin (far-western)
